From article PMC7655567 come the findings set out here.

Substrate in this data set: O=C(O)CO
The experiment in a line: purified protein. The note with it: 2 mM FMN, 5 mM MgSO4, 0.5 mM EDTA, 3 mM phenylhydrazine; measured in parallel with RcGOX.

B1: AtGOX1 (Arabidopsis thaliana) (protein)
chain: MEITNVTEYDAIAKQKLPKMVYDYYASGAEDQWTLQENRNAFARILFRPRILIDVSKIDMTTTVLGFKISMPIMVAPTAMQKMAHPDGEYATARAASAAGTIMTLSSWATSSVEEVASTGPGIRFFQLYVYKNRNVVEQLVRRAERAGFKAIALTVDTPRLGRRESDIKNRFTLPPNLTLKNFEGLDLGKMDEANDSGLASYVAGQIDRTLSWKDVQWLQTITKLPILVKGVLTGEDARIAIQAGAAGIIVSNHGARQLDYVPATISALEEVVKATQGRIPVFLDGGVRRGTDVFKALALGASGIFIGRPVVFSLAAEGEAGVRKVLQMLRDEFELTMALSGCRSLKEISRNHITTEWDTPRPSARL
One may read the Km as the concentration of substrate that gives half-maximal velocity. The term kcat denotes the number of substrate molecules converted per active site and unit of time at saturation. As to B1, the Km turned out to be 0.39 ± 0.1 mM and the kcat is 62.6 ± 14.2 min⁻¹.
